From patent US20250340608A1 (PROTAGONIST THERAPEUTICS, published 2025)
Numbered stars: 1 amine (or outer) side, 2 acyl side, 3 side chain; on linkers, the order of the positions; unused ones are H or OH. Side chains are listed from the residue outwards. * marks the point of attachment. γGlu = O=C(O)[C@H](CCC(=O)[*:2])N[*:1]; Palmitoyl = CCCCCCCCCCCCCCCC(=O)*; Isovaleryl = CC(C)CC(=O)*; dapa = not defined here

T1: human ferroportin (SLC40A1) fused in frame with GFP, stably expressed in HEK293 cells (human, UniProt Q9NP59 1-571)
T1 sequence (looked up): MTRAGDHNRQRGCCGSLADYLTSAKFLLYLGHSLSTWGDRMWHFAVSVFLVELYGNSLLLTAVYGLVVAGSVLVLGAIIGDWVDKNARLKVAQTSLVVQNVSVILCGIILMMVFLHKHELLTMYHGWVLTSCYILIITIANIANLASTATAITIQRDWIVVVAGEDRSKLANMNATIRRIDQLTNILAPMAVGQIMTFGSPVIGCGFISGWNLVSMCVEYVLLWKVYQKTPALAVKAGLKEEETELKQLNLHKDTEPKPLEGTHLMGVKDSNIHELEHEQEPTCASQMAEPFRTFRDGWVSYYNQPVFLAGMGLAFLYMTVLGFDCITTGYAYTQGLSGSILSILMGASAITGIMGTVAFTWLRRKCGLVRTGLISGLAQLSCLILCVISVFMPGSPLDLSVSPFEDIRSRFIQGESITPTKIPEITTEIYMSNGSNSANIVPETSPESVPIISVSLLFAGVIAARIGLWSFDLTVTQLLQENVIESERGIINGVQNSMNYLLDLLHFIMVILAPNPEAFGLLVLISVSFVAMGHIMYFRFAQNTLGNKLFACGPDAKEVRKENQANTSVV

T2: human ferroportin (SLC40A1) fused in frame with GFP, stably expressed in HEK293 cells (human, UniProt Q9NP59 1-571)
T2 sequence (looked up): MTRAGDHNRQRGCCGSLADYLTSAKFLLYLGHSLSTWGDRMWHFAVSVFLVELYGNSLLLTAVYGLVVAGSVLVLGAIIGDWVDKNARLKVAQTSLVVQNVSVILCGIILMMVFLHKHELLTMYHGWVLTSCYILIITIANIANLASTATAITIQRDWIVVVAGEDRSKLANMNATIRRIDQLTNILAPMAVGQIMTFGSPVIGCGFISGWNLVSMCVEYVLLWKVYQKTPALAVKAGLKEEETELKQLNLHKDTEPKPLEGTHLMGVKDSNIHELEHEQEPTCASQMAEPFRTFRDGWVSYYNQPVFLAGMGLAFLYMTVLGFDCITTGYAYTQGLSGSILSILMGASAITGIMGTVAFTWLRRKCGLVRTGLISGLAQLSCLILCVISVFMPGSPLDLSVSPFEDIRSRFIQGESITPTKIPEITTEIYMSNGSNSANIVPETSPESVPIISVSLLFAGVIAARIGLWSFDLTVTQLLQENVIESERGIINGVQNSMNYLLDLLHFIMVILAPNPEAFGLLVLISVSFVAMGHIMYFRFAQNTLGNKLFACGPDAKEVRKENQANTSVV


molecular target: T1, human ferroportin (SLC40A1) fused in …; test: cell-based or functional assay

| Potency EC50 [nM] | Potency EC50 (nM) | Binder |
| --- | --- | --- |
| 2470 | – | H-DTHFPICIAGPRSKGWVCM-NH2 (cysteine pairing not given here) [Compound 67] |
| 520 | – | H-DTHFPICIFGPRSKGAVCM-NH2 (cysteine pairing not given here) [Compound 66] |
| 498 | – | H-DTAFPICIFGPRSKGWVCM-NH2 (cysteine pairing not given here) [Compound 60] |
| – | > 10000 | H-DTHFPICAFGPRSKGWVCM-NH2 (cysteine pairing not given here) [Compound 68] |

molecular target: T2, human ferroportin (SLC40A1) fused in …; test: cell-based or functional assay

| Potency EC50 [nM] | Binder |
| --- | --- |
| 17 | Isovaleryl-DTHFPCIK([dapa-Palmitoyl])FEPRSKGCK-NH2 (not fully specified (bridges); cysteine pairing not given here; reading uncertain) [Compound 225] |
| > 500 | Isovaleryl-DTHAPCIKFGPRSKGWVCK-NH2 (not fully specified (bridges); cysteine pairing not given here) [Compound 236] |
| 6 | DTHFPCIKFKPRSKGWECK (not fully specified; N-terminal isovaleric acid; K10(isoGlu-Palm); C-terminal NH2) [Compound 241] |
| 60 | Isovaleryl-ATHFPCIKFGPRSKGWVCK-NH2 (not fully specified (bridges); cysteine pairing not given here) [Compound 234] |
| 7 | Isovaleryl-DTHFPCIKFEPRSK([dapa-Palmitoyl])GCK-NH2 (not fully specified (bridges); cysteine pairing not given here; reading uncertain) [Compound 228] |
| 5 | Isovaleryl-DTHFPCIKFEPK([γGlu-Palmitoyl])SKGCK-NH2 (not fully specified (bridges); cysteine pairing not given here) [Compound 220] |
| 4 | Isovaleryl-DTHFPCIKFEPRSKK([γGlu-Palmitoyl])CK-NH2 (not fully specified (bridges); cysteine pairing not given here) [Compound 222] |
| 10 | Isovaleryl-DTHFPCIKFEPRSKGCK([dapa-Palmitoyl])K-NH2 (not fully specified (bridges); cysteine pairing not given here; reading uncertain) [Compound 230] |
| 8 | Isovaleryl-DTHFPCIKFEPK([γGlu-Palmitoyl])SKGWECK-NH2 (not fully specified (bridges); cysteine pairing not given here) [Compound 242] |
| 50 | Isovaleryl-DTHFPCIKAGPRSKGWVCK-NH2 (not fully specified (bridges); cysteine pairing not given here) [Compound 237] |
| 10 | Isovaleryl-DTHFPCIKFEPK([dapa-Palmitoyl])SKGCK-NH2 (not fully specified (bridges); cysteine pairing not given here; reading uncertain) [Compound 227] |
| 4 | DTHFPCIKFEPRSKGCKK (not fully specified; N-terminal isovaleric acid; K18(isoglu-Palm); C-terminal NH2) [Compound 224] |
